Results on five molecules are retold here after US20250382376A1 (FUDAN UNIVERSITY, published 2025).

Positions count from the first letter of the chain named.

What is called EC50 is the concentration needed to bring the measured effect to its halfway point. As usually defined, the koff is a measure of how fast the partners let go of each other. The kon is the rate constant with which the complex forms. As usually defined, the Kd is the equilibrium constant for the complex coming apart.

The target in experiment [1] is T1, cynomolgus monkey CD73-ECD (cynomolgus monkey, UniProt A0A2K5V5U7 27-549).
T1 construct: also called cynomolgus CD73-ECD
T1 sequence: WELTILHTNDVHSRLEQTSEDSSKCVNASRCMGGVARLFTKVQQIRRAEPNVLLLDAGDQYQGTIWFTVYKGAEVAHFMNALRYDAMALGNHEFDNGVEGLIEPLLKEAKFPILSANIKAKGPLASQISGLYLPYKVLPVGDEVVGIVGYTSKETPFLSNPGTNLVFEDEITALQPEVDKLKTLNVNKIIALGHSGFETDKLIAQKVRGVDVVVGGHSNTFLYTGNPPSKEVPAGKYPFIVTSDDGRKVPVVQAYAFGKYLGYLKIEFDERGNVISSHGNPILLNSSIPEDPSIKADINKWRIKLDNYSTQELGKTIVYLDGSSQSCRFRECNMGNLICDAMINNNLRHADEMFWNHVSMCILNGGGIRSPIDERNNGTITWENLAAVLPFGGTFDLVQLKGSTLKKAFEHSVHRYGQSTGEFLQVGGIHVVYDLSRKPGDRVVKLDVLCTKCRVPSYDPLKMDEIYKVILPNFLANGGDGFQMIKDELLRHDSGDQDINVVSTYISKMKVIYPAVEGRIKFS
The experiment is described as follows: ELISA, coated cynomolgus CD73-ECD, method of Example 3. On the procedure: (§1) The CD73 protein extracellular region (CD73-ECD) was diluted to 1 μg/mL using the coating solution, and an ELISA plate was coated at 100 μL/well at 4° C. overnight. Excess antigens were washed away, and the plate was blocked with 1% BSA at room temperature for 2 hours. Then, 5-fold gradient dilutions of each monoclonal antibody were added at 100 μL/well and incubated at room temperature for 1 hour. Unbound antibodies were washed away, and an appropriate concentration of Staphylococcal protein A labeled with horseradish peroxidase was added at 100 μL/well and incubated at room temperature for 0.5 hours. Unbound secondary antibodies were washed away, and TMB color development solution was added to react for about 15 minutes. 1M HCL was added at 50 µL/well to terminate the color development reaction, and then the absorbance was measured at 450 nm and the data was analyzed.
(§2) The affinity of the humanized antibody to human and cynomolgus CD73-ECD was detected according to the ELISA determination method of Example 3.
On the technique in general: In an ELISA, binding on a coated surface is turned into a signal by an enzyme label.

In experiment [2] the target is T2, extracellular domain of human CD73 protein, C-terminus polyhistidine-tagged (human, UniProt P21589 27-547).
T2 construct: also the immunogen; also called CD73-ECD; human CD73-ECD
T2 sequence: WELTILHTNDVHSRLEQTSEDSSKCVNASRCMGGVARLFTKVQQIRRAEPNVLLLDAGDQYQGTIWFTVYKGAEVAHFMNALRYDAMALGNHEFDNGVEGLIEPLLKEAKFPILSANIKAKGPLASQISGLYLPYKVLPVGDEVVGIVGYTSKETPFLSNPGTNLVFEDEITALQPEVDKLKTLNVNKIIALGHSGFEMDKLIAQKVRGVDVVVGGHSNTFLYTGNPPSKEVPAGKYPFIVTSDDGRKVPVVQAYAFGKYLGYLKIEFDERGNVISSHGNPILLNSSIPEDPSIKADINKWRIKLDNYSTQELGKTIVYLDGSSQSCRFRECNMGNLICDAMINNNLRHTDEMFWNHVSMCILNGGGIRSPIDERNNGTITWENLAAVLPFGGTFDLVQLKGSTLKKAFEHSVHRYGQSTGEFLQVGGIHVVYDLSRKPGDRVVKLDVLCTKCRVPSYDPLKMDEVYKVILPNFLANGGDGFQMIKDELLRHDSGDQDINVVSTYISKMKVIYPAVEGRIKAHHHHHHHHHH
Nature of the experiment: ELISA, coated human CD73-ECD, method of Example 3. As for the experimental part:
as §1, §2

Experiment [3] has as its target T3, CD73 on the surface of human cells (human, UniProt P21589 27-549).
T3 sequence (looked up): T1 sequence with T199M, A350T, I466V
Nature of the experiment: cell-based or functional assay.

The target of experiment [4] is T2, extracellular domain of human CD73 …. The experiment is described as follows: ELISA, coated CD73-ECD, method of Example 3. As for the experimental part: as §1
(§3) Based on the above mutants, 5-E11ASCS was designed and prepared, and the CD73 antigen ELISA binding affinity test was performed according to the method of Example 3.

Experiment [5] concerns the target T3, CD73 on the surface of human cells. Nature of the experiment: flow cytometry on SW1573 cells. On the procedure: (§4) 100 μL of the test antibodies diluted from 10 μg/mL to 0.016 μg/mL in a 5-fold gradient were used as the primary antibodies, and were mixed with 1×10⁵ tumor cells suspended in 100 μL RPMI-1640 serum-free medium to make a final concentration of 5 μg/mL diluted to 0.008 μg/mL, and then incubated at 4° C. for 1 h. The cells were washed twice with PBS to remove unbound primary antibodies, and then the target cells were incubated with 200 μLPE-labeled secondary antibody at 2 μg/mL at 4° C. for 30 min. The cells were washed twice with PBS to remove unbound secondary antibodies, and finally the cells were resuspended in 200 μL PBS. The binding affinity of the test antibodies to CD73 on the surface of the corresponding cells was measured by flow cytometry.

Experiment [6] addresses T2, extracellular domain of human CD73 …. The experiment is described as follows: ELISA on coated human CD73-ECD (the text rounds this value to 0.018 µg/mL). On the procedure:
as §1, §3

The target in experiment [7] is T3, CD73 on the surface of human cells. The experiment is described as follows: flow cytometry on NCI-H1299 cells. (Flow cytometry measures light scatter and fluorescence of single cells or particles in a stream.)
Experiment [8] concerns the target T2, extracellular domain of human CD73 …. Nature of the experiment: ForteBio Octet (the filing calls it SPR), by the method of Example 2 according to the text; sheet prints 'Loading Sample ID: FDYKSD-02-His'; traces labelled 50, 25, 12.5, 6.25, 3.13. On the technique in general: BLI is a label-free optical method that tracks binding on a fibre tip over time.
The target in experiment [9] is T3, CD73 on the surface of human cells. The experiment is described as follows: Flow cytometry on NCI-H1299 cells. As for the experimental part: as §4
The binding affinity of the humanized antibodies to NCI-H1299 cells was detected according to the method for determining the binding affinity of CD73 on the surface of tumor cells in Example 5.

Experiment [10] deals with T2, extracellular domain of human CD73 …. The experiment is described as follows: SPR as the filing names it (method of Example 2, ForteBio OCTET R2). As for the experimental part: Surface plasmon resonance (SPR) assay: Protein A sensor was used to immobilize the antibodies, with an immobilization height of about 1.5 nM. […] Affinity detection: equilibrium for 60 s, binding for 180 s, dissociation for 180 s, at a detection temperature of 25° C. Kinetic characterization analysis was performed using the ForteBio OCTET R2 system.
The affinity of the humanized antibody to the antigen was detected by the surface plasmon resonance (SPR) assay method in Example 2.

Experiment [11] has as its target T4, human recombinant CD73 enzyme (CD73 extracellular region) (human, UniProt P21589 27-549).
T4 sequence (looked up): T1 sequence with T199M, A350T, I466V
Nature of the experiment: cell-based or functional assay.

B1: humanized antibody 3D7-HM9-FCWT (Fc fusion)
VHH: QRQLVESGGGLVQPGGSLRLSCAASGFLLDYYVIGWFRQAPGKEREGVSCISGSDRSTYYADSVKGRFTISRDNAKNTVYLQMSSLRAEDTAVYYCAADPSPVTVQAMCLPRFPVPYWGKGTLVTVSS
notes: 3D7-HM9 VH on an Fc called FCWT; not shown: FCWT Fc segment
As to B1, the figures for the EC50 in experiment [1] and in experiment [2] were 0.00206 µg/mL and 0.00209 µg/mL, respectively. Besides, the “IC50, inhibition of the catalytic function of CD73 enzyme on MDA-MB-231 cells” value in [3] came out at 0.126 µg/mL.

B2: 5-E11 derived antibody 5-E11ASCS (VHH)
VHH: ALQLVESGGGLVQPGGSLRLSCEVSGFTLDYYNIGWFRQAPGKEREGVSSSSASGGSTYYADSVKGRFTISRDNAKNTVYLQMNSLKPEDTGVYYCAAYRGWHPSLDARVYDYWGQGTEVTVSS
Regarding B2, the results for the EC50 in experiment [4], in experiment [5] and in experiment [6] were 0.018 µg/mL, 0.015 µg/mL and 0.0179 µg/mL, respectively.

B3: humanized antibody 3D7-HM8-FC1 (Fc fusion)
heavy: QRQLVESGGGLVQPGGSLRLSCAASGFLLDYYVIGWFRQAPGKEREGVSCISGSDRSTYYADSVKGRFTISRDNSKNTVYLQMSSLRAEDTAVYYCAADPSPVTVQAMCLPRFPVPYWGQGTLVTVSSEPKSSDKTHTCPPCPAPEFEGGPSVFLFPPKPKDTLMISRTPEVTCVVVDVSHEDPEVKFNWYVDGVEVHNAKTKPREEQYNSTYRVVSVLTVLHQDWLNGKEYKCKVSNKALPASIEKTISKAKGQPREPQVYTLPPSRDELTKNQVSLTCLVKGFYPSDIAVEWESNGQPENNYKTTPPVLDSDGSFFLYSKLTVDKSRWQQGNVFSCSVMHEALHNHYTQKSLSLSPGK
B3 registered an EC50 in experiment [7] of 0.043 µg/mL. Besides, in [8], the koff came to 0.000913 s⁻¹ and the kon stood at 779000 M⁻¹ s⁻¹. Moreover, the “Max MFI” value in experiment [9] was found to be 106000 MFI. Besides, the Kd in experiment [10] turned out to be 1.17 nM. Moreover, the “IC50, inhibition of the catalytic function of recombinant human CD73 enzyme” value in [11] came to 0.0555 µg/mL.

B4: humanized antibody 3D7-HM9-FC1 (Fc fusion)
heavy: B3 heavy with S75A, Q120K
In experiment [7], B4 yielded an EC50 of 0.02 µg/mL. The molecule further came in with a half-maximal effective concentration (EC50) in experiment [1] of 0.00188 µg/mL. Also, in experiment [8], the dissociation rate constant (koff) stood at 0.00086 s⁻¹ and the kon stood at 1.35e+06 M⁻¹ s⁻¹. The “Max MFI” value in [9] turned out to be 105000 MFI. The molecule also had a concentration giving a half-maximal response (EC50) in [2] of 0.0025 µg/mL. In experiment [10], the Kd was determined as 0.638 nM. For the same molecule, in experiment [3], the “EC50, reversal of the AMP inhibition of human T lymphocyte proliferation” value came to 0.024 µg/mL and the “IC50, inhibition of the catalytic function of CD73 enzyme on MDA-MB-231 cells” value came to 0.098 µg/mL. For the same molecule, in [11], the “IC50, inhibition of the catalytic function of recombinant human CD73 enzyme” value was found to be 0.0187 µg/mL.

B5: humanized antibody 3D7-HM7-FC1 (Fc fusion)
heavy: B3 heavy with S84G
Turning to B5, in experiment [7], the half-maximal effective concentration (EC50) was 0.02 µg/mL. In experiment [8], this molecule showed a dissociation rate constant (koff) of 0.00091 s⁻¹ and an on-rate (kon) of 702000 M⁻¹ s⁻¹. In addition, the “Max MFI” value in [9] came out at 103000 MFI. In [10], the affinity, expressed as Kd, was 1.3 nM. Moreover, the “IC50, inhibition of the catalytic function of recombinant human CD73 enzyme” value in experiment [11] stood at 0.0456 µg/mL.
